Source: patent US20220378912A1 (Novartis, published 2022)
Values belong to the binder of their own block, whether it stands above or below them.

Assays:
[1] = molecular target: T1, recombinant human P-selectin (human, UniProt P16109 42-771, limits assumed); experiment: P-selectin binding assay of Example 2 (ELISA), relative %; CZE peak comprising the variant
T1 construct: Coated on ELISA plates
T1 sequence (looked up): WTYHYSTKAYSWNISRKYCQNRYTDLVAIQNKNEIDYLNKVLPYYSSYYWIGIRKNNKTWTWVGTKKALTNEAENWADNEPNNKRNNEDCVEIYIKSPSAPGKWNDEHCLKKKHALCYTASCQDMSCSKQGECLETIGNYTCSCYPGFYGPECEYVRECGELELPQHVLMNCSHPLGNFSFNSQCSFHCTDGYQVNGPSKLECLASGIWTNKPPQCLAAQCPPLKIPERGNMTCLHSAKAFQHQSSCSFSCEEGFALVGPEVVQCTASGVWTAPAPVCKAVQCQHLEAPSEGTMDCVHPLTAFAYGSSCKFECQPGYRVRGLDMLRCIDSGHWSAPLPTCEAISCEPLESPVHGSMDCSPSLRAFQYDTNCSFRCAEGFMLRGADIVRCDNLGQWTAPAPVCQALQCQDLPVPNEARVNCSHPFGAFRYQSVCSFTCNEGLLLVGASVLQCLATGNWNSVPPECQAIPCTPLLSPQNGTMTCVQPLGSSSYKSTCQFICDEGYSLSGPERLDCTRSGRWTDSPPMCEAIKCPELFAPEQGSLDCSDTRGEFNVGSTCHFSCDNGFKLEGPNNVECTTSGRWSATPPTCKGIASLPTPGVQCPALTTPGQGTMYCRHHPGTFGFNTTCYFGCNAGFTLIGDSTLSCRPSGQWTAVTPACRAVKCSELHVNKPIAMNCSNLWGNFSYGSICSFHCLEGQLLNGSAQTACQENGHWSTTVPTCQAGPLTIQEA
Method: In the ELISA, potency and identity of SEG101 samples are measured based on their ability to bind recombinant human P-selectin. ELISA plates are coated with recombinant human P-selectin, and graded amounts of SEG101 are added. Bound SEG101 is quantified using an anti-human IgG antibody coupled to horseradish peroxidase followed by the addition of a colorimetric substrate. Results of the colorimetric reaction are measured by light absorption. The potency of a SEG101 test sample is quantified by comparing its ability to bind P-selectin to that of a SEG101 reference standard. The samples and the standard are normalized on the basis of protein content. Relative potency is calculated using a parallel line assay according to the European Pharmacopoeia. The final result is expressed as relative potency (in percent) of a sample compared to the reference standard.

[2] = molecular target: T2, P-selectin fused to immunoglobulin (Psel-Ig) (UniProt P16109 42-771, limits assumed); experiment: SPR competition: dilution series of crizanlizumab and any variants thereof inhibiting Psel-Ig binding to immobilised biotinylated GSP-6 (standard inhibition curve)
T2 construct: also called spiked P-selectin; not shown: immunoglobulin part of the fusion
T2 sequence (looked up): T1 sequence (looked up)
Method: An SPR-based method was used to measure ex vivo % P-selectin inhibition of crizanlizumab in human serum samples from human donors treated with crizanlizumab. This PD assay measured the ability of crizanlizumab and it variants in serum to block P-selectin (antigen; ligand) binding to PSGL-1 (ligand receptor). Blockage by crizanlizumab and any variants thereof was measured as % inhibition of spiked P-selectin fused to immunoglobulin (Psel-Ig) binding to glycosulfopeptide 6 (GSP-6), a peptide analogue mimicking the PSGL-1 binding domain. For example, streptavidin was immobilized on 2 channels (FC-2 and FC-3) of the used biosensor chip using standard amine coupling followed by injection of biotinylated GSP-6 to immobilize the peptide for analysis. A reference channel (FC-1) was prepared by biotin-blocking streptavidin. The pre-treatment samples established the maximum binding for each subject and this was used as the basis for calculating % inhibition using the post-dose serum samples from the subject at various time points. Quantified crizanlizumab and any variants thereof in a series of dilutions were used to generate standard inhibitition curve, showing an IC₅₀ value of 5.2 μg/mL for crizanlizumab under all conditions.

B1: D-succinimide of crizanlizumab (antibody, human IgG2, kappa)
heavy: QVQLVQSGAEVKKPGASVKVSCKVSGYTFTSYDINWVRQAPGKGLEWMGWIYPGDGSIKYNEKFKGRVTMTVDKSTDTAYMELSSLRSEDTAVYYCARRGEYGNYEGAMDYWGQGTLVTVSSASTKGPSVFPLAPCSRSTSESTAALGCLVKDYFPEPVTVSWNSGALTSGVHTFPAVLQSSGLYSLSSVVTVTSSNFGTQTYTCNVDHKPSNTKVDKTVERKCCVECPPCPAPPVAGPSVFLFPPKPKDTLMISRTPEVTCVVVDVSHEDPEVQFNWYVDGMEVHNAKTKPREEQFNSTFRVVSVLTVVHQDWLNGKEYKCAVSNKGLPAPIEKTISKTKGQPREPQVYTLPPSREEMTKNQVSLTCLVKGFYPSDIAVEWESNGQPENNYKTTPPMLDSDGSFFLYSKLTVDKSRWQQGNVFSCSVMHEALHNHYTQKSLSLSPGK
light 1: DIQMTQSPSSLSASVGDRVTITCKASQSVDYDGHSYMNWYQQKPGKAPKLLIYAASNLESGVPSRFSGSGSGTDFTLTISSLQPEDFATYYCQQSDENPLTFGGGTKVEIKRTVAAPSVFIFPPSDEQLKSGTASVVCLLNNFYPREAKVQWKVDNALQSGNSQESVTEQDSKDSTYSLSSTLTLSKADYEKHKVYACEVTHQGLSSPVTKSFNRGEC
light 2: B1 light 1
modifications: succinimide at position 32
notes: One light chain with succinimide, the other with aspartic acid at position 32; also called D-Succi-crizanlizumab
P-selectin binding affinity [%] [1]: 78%

B2: isoD-succinimide of crizanlizumab (antibody, human IgG2, kappa)
heavy: B1 heavy
light 1: B1 light 1
light 2: B1 light 1
modifications: isoaspartic acid at position 32; succinimide at position 32
notes: One light chain with succinimide, the other with isoaspartic acid at position 32; also called isoD-Succi-crizanlizumab
P-selectin binding affinity [%] [1]: 63%

B3: hetero-iso-crizanlizumab (antibody, human IgG2, kappa)
heavy: B1 heavy
light 1: B1 light 1
light 2: B1 light 1
modifications: isoaspartic acid at position 32
notes: Aspartic acid at position 32 of only one light chain replaced by isoaspartic acid; also called iso-crizanlizumab (one light chain)
P-selectin binding affinity [%] [1]: 105%

Other lines, results leading:

P-selectin binding affinity [%] [1]: 90% | IC50 [2]: 5.2 µg/mL
B4: SEG101 (crizanlizumab), humanised monoclonal antibody against human P-selectin (antibody, human IgG2, kappa, V domains shown)
VH: QVQLVQSGAEVKKPGASVKVSCKVSGYTFTSYDINWVRQAPGKGLEWMGWIYPGDGSIKYNEKFKGRVTMTVDKSTDTAYMELSSLRSEDTAVYYCARRGEYGNYEGAMDYWGQGTLVTVSS
VL: DIQMTQSPSSLSASVGDRVTITCKASQSVDYDGHSYMNWYQQKPGKAPKLLIYAASNLESGVPSRFSGSGSGTDFTLTISSLQPEDFATYYCQQSDENPLTFGGGTKVEIKR
notes: also called SelG1; main peak

P-selectin binding affinity [%] [1]: 119%
B5: homo-iso-crizanlizumab (antibody, human IgG2, kappa, V domains shown)
VH: B4 VH
VL: B4 VL
modifications: isoaspartic acid at position 32
notes: Aspartic acid at position 32 of both light chains replaced by isoaspartic acid; also called iso-crizanlizumab (both light chains)
